{
  "source": "patent US20240301429A1",
  "about": "(RSEM LIMITED PARTNERSHIP, published 2024)",
  "assay_in_all_cases": "saturation binding, trap coated on plate, SEMA3A-FC titrated, anti-human IgG-HRP chemiluminescence",
  "key": {"NRP1 trap G": {"target": "T1, NRP1 trap G (human, UniProt O14786 22-856)", "T1 construct": "a1a2-b1b2-c; The mature trap lacks the signal peptide (about aa 1-21, may vary)", "T1 sequence": "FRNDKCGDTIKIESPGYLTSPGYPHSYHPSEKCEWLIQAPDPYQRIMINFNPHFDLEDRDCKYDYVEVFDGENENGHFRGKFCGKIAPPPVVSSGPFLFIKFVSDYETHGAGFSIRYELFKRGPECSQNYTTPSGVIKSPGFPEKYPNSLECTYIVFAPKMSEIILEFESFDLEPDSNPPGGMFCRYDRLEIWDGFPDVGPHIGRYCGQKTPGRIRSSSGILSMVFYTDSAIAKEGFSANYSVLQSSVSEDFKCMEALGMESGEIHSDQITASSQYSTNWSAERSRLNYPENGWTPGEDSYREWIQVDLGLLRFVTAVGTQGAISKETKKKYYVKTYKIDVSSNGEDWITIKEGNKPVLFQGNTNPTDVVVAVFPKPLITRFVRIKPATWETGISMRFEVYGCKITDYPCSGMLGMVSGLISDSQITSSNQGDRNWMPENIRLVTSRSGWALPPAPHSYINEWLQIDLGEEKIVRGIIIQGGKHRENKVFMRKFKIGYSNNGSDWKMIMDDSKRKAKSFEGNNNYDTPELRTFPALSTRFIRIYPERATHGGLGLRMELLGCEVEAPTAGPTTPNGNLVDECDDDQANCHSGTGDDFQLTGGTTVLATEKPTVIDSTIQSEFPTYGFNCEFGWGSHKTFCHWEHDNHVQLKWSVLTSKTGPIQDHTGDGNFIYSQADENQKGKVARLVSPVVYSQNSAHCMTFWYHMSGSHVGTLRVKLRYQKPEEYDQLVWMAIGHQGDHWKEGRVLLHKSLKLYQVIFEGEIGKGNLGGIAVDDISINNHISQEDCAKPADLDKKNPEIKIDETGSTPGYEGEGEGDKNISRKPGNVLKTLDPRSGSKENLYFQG", "experimental": "(§1) Sema 3A and AP-VEGF₁₆₅ binding assays. Saturation curves for the determinations of KD of binding to SEMA 3A or VEGF165 were obtained as follow. Wells of high protein binding 96 well plates (Maxisorp, Nunc) were coated with purified traps diluted in PBS and blocked afterward with binding buffer (PBS containing 2% casein and 0.05% Tween 20). The SEMA3A-FC (R&D systems) or AP-VEGF165 ligands were diluted in binding buffer over an extensive range of concentrations and added to wells. Following an overnight incubation, wells were washed with PBS containing 0.05% tween. Bound SEMA3a-FC was detected using an HRP-linked anti-Human IgG (Biorad) and ECL substrate (Pierce). Alternatively, bound AP-VEGF165 was detected using CPD star substrate (Roche). The Chemiluminescent signal was acquired on a TECAN reader. Dissociation constant (KD) were determined by non-linear curve fitting using the Graph Pad prism software."}, "NRP1 trap R": {"target": "T2, NRP1 trap R (human, UniProt O14786 22-856)", "T2 construct": "a1a2-b1b2-c with Y297A (the entry is the trap itself, so no substitution is applied)", "T2 sequence": "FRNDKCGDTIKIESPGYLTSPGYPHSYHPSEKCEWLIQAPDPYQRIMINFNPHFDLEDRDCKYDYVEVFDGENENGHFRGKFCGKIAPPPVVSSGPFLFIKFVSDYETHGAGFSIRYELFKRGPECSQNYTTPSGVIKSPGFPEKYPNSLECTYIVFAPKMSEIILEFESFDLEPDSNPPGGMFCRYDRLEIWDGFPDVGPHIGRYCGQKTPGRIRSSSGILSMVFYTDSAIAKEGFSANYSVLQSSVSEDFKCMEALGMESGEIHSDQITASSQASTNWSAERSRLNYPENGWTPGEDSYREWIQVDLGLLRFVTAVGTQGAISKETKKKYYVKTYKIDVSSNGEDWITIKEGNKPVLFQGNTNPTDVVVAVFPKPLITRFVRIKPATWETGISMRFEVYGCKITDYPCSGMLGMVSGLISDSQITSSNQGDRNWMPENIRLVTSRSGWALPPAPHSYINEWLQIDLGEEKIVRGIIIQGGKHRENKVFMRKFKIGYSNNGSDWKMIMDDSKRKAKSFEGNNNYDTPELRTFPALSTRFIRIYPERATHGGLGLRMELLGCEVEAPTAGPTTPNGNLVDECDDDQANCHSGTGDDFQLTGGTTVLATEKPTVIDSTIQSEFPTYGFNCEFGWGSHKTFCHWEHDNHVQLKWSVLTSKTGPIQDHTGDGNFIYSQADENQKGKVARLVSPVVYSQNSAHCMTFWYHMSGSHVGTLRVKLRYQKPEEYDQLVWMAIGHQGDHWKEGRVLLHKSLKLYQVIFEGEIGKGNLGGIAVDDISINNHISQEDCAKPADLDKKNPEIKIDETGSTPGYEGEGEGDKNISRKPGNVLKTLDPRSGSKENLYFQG", "experimental": "as §1"}, "NRP1 trap AC": {"target": "T3, NRP1 trap AC (human, UniProt O14786 22-856)", "T3 construct": "a1a2-b1b2-c with D320K (held in the entry); Signal peptide not trimmed", "T3 sequence": "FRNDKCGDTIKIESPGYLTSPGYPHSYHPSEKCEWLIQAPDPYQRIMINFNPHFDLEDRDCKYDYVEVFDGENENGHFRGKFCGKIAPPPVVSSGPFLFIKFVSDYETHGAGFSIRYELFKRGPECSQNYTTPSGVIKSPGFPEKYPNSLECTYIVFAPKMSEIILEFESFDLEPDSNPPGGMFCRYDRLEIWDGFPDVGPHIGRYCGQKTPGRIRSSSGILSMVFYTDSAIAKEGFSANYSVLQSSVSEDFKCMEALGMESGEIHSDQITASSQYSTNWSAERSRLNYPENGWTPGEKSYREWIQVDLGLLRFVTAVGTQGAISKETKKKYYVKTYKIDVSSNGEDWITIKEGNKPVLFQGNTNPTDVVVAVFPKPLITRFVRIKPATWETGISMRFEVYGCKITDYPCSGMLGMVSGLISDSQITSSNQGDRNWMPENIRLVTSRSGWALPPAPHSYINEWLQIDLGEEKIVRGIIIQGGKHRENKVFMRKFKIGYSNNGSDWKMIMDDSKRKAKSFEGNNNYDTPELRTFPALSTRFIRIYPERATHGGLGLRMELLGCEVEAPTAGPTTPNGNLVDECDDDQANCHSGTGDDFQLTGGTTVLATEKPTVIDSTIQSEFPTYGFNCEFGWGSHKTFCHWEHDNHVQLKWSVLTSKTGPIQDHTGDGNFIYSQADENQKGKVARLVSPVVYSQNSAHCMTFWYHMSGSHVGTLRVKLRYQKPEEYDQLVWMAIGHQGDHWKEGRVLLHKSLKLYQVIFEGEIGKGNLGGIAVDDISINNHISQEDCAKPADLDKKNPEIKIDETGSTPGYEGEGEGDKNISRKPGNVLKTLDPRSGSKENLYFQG", "experimental": "as §1"}},
  "data": [
    {"binder": "SEMA3A-FC (R&D systems) (Fc fusion, Bought reagent; not shown: Fc portion of the bought fusion, detected with anti-human IgG) YQNGKNNVPRLKLSYKEMLESNNVITFNGLANSSSYHTFLLDEERSRLYVGAKDHIFSFDLVNIKDFQKIVWPVSYTRRDECKWAGKDILKECANFIKVLKAYNQTHLYACGTGAFHPICTYIEIGHHPEDNIFKLENSHFENGRGKSPYDPKLLTASLLIDGELYSGTAADFMGRDFAIFRTLGHHHPIRTEQHDSRWLNDPKFISAHLISESDNPEDDKVYFFFRENAIDGEHSGKATHARIGQICKNDFGGHRSLVNKWTTFLKARLICSVPGPNGIDTHFDELQDVFLMNFKDPKNPVVYGVFTTSSNIFKGSAVCMYSMSDVRRVFLGPYAHRDGPNYQWVPYQGRVPYPRPGTCPSKTFGGFDSTKDLPDDVITFARSHPAMYNPVFPMNNRPIVIKTDVNYQFTQIVVDRVDAEDGQYDVMFIGTDVGTVLKVVSIPKETWYDLEEVLLEEMTVFREPTAISAMELSTKQQQLYIGSTAGVAQLPLHRCDIYGKACAECCLARDPYCAWDGSACSRYFPTAKRRTRRQDIRNGDPLTHCSDLHHDNHHGHSPEERIIYGVENSSTFLECSPKSQRALVYWQFQRRNEERKEEIRVDDHIIRTDQGLLLRSLQQKDSGNYLCHAVEHGFIQTLLKVTLEVIDTEHLEELLHKDDDGDGSKTKEMSNSMTPSQKVWYRDFMQLINHPNLNTMDEFCEQVWKRDRKQRRQRPGHTPGNSNKWKHLQENKKGRNRRTHEFERAPRSV", "values": [
      {"measurement": "Kd", "setting": "NRP1 trap G", "result": 0.8, "unit": "nM"},
      {"measurement": "Kd", "setting": "NRP1 trap R", "result": 6.15, "unit": "nM"},
      {"measurement": "Kd", "setting": "NRP1 trap AC", "result": 4, "unit": "nM"}
    ]}
  ]
}
